Experiments:
AncSZ = assay: phosphorylation enrichment, bacterial display (enrichment ratio); higher = better substrate or ligand; peptides without Tyr show the background
c-Abl (mouse) = assay: as above
Hck = Hck (UniProt P08631); assay: as above
FGFR3 = FGFR3 (UniProt P22607); assay: as above
Fes = Fes (UniProt P07332); assay: as above
Fyn = Fyn (UniProt P06241); assay: as above
FGFR1 = FGFR1 (UniProt P11362); assay: as above
EPHB1 = EPHB1 (UniProt P54762); assay: as above
Fer (mouse) = assay: as above
c-Src = assay: as above
MERTK = MERTK (UniProt Q12866); assay: as above
EPHB2 = EPHB2 (UniProt P29323); assay: as above
Jak2 = Jak2 (UniProt O60674); assay: as above
SHP2-C SH2 = assay: SH2 binding enrichment of the phosphorylated peptide, bacterial display (enrichment ratio); higher = better substrate or ligand; peptides without Tyr show the background
Grb2 SH2 = Grb2 SH2 (UniProt P62993); assay: as above
c-Src SH2 = assay: as above
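For SH2 binding enrichment of the phosphorylated peptide, bacterial display in this document: peptide library displayed on the E. coli surface as eCPX fusions, selected cells deep-sequenced, score is each peptide's frequency after selection divided by its frequency in the input.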
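For phosphorylation enrichment, bacterial display in this document: 11-residue human phosphosite peptides and single-mutation variants displayed on the E. coli surface, counted by deep sequencing, each peptide's frequency after selection divided by its frequency in the unselected input library; frequency after pTyr selection over input frequency; kinase dosed for 20-30% of maximal phosphorylation in three min.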

FGFR3, sequence (P22607 whole entry, looked up): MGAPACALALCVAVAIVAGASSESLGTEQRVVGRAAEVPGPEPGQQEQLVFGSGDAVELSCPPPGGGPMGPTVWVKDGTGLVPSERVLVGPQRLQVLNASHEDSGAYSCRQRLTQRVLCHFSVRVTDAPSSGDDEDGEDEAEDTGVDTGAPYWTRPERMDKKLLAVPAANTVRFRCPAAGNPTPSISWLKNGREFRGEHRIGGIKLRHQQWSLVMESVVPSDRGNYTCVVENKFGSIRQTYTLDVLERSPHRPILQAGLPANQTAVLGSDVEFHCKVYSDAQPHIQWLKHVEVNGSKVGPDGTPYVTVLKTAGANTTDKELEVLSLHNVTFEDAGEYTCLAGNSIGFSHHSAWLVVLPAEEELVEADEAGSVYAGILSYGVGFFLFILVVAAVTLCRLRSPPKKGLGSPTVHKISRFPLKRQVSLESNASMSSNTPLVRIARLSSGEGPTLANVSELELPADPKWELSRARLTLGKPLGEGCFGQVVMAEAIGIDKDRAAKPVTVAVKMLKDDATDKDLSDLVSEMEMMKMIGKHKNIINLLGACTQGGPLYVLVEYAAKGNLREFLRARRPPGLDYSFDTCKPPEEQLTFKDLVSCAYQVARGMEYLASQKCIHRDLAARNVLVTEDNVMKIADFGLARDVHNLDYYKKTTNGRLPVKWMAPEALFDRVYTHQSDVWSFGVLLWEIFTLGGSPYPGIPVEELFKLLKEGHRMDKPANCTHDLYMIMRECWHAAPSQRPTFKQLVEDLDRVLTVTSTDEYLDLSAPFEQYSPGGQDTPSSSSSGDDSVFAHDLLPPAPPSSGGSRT
Fes, sequence (P07332 whole entry, looked up): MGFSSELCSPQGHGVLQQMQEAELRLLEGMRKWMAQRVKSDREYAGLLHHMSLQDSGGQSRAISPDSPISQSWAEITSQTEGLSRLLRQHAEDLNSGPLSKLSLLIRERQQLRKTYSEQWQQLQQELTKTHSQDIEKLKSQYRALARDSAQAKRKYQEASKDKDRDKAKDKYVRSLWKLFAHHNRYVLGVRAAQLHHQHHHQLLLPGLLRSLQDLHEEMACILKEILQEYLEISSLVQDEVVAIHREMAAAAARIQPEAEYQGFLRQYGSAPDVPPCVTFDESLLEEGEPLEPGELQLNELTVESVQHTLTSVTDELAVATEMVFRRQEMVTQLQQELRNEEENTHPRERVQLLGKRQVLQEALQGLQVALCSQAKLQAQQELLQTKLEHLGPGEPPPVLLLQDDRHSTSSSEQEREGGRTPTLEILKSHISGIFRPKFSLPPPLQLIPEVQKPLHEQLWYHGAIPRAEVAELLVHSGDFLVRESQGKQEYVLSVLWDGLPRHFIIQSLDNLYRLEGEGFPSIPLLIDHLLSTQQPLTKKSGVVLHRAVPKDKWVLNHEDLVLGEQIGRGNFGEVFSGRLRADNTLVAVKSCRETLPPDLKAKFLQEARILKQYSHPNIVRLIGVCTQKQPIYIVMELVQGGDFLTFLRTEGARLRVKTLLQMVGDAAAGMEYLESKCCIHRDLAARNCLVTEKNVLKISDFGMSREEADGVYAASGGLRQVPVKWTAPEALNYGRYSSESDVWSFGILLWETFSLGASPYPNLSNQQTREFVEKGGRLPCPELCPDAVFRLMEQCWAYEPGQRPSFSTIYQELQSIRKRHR
Hck, sequence (P08631 whole entry, looked up): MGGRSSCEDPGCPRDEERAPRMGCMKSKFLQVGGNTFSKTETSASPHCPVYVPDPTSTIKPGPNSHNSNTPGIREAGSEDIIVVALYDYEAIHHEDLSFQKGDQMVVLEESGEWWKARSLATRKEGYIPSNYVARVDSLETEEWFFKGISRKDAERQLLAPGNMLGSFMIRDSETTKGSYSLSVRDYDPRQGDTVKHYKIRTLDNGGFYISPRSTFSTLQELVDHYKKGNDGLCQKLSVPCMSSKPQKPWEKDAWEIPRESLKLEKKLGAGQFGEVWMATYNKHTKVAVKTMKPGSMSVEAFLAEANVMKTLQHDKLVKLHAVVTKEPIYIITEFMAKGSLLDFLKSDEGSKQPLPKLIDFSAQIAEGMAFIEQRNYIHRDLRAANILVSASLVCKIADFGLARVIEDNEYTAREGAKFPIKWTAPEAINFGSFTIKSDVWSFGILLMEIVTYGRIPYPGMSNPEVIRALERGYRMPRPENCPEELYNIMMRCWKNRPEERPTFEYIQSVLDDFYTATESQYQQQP
Grb2 SH2, sequence (P62993 whole entry, looked up): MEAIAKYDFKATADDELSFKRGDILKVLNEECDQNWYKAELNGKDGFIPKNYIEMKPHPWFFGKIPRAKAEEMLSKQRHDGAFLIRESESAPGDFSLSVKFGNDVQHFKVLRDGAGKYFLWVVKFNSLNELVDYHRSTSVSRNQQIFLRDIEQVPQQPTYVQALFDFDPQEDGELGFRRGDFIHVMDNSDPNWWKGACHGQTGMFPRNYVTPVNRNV
FGFR1, sequence (P11362 whole entry, looked up): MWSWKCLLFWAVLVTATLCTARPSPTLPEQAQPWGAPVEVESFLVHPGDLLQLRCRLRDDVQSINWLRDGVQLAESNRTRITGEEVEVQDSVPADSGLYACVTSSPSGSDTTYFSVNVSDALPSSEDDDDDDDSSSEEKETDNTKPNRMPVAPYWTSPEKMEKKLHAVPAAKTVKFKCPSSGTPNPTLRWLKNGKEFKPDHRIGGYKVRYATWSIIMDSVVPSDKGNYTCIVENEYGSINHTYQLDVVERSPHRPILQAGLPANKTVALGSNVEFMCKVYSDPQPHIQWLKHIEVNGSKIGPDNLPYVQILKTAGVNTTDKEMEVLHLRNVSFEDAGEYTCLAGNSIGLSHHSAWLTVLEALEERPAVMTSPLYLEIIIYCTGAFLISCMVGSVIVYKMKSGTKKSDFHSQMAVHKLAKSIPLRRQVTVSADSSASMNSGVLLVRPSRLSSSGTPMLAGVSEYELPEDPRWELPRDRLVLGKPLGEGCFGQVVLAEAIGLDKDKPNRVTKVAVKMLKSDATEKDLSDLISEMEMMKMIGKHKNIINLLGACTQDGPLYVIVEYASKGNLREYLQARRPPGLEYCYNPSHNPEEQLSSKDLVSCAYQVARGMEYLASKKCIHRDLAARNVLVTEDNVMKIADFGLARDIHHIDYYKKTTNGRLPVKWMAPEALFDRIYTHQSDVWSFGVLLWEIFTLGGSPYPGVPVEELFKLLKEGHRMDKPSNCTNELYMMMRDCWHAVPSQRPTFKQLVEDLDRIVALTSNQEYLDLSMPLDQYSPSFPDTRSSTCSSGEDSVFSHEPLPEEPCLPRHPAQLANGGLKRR
EPHB2, sequence (P29323 whole entry, looked up): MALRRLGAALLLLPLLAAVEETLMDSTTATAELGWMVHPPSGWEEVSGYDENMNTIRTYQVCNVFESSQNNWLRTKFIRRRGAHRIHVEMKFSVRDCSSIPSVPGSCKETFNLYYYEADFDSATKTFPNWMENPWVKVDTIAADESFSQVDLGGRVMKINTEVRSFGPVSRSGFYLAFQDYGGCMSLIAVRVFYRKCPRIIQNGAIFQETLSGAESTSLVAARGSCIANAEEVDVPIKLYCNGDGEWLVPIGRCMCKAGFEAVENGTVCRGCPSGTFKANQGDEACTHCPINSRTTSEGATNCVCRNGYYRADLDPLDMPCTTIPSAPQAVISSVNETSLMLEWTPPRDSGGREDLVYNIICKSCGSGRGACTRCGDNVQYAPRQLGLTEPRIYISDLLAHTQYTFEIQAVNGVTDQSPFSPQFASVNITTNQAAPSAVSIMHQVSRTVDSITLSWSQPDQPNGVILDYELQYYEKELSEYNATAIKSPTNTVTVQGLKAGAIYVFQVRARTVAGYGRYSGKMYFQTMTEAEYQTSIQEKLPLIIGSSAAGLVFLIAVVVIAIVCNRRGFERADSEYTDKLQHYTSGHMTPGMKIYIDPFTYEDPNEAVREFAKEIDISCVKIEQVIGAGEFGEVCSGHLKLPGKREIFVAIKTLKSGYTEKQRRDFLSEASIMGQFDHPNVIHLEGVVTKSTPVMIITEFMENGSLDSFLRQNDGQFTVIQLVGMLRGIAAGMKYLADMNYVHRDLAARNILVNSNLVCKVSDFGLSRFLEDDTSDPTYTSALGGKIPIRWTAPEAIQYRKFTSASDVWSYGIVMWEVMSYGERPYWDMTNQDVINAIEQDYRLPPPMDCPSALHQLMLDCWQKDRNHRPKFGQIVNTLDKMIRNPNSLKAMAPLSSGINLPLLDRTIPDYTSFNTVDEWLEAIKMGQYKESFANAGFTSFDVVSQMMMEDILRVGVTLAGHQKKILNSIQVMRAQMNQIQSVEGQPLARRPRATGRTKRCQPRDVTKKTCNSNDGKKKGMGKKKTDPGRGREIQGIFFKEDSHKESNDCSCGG
Fyn, sequence (P06241 whole entry, looked up): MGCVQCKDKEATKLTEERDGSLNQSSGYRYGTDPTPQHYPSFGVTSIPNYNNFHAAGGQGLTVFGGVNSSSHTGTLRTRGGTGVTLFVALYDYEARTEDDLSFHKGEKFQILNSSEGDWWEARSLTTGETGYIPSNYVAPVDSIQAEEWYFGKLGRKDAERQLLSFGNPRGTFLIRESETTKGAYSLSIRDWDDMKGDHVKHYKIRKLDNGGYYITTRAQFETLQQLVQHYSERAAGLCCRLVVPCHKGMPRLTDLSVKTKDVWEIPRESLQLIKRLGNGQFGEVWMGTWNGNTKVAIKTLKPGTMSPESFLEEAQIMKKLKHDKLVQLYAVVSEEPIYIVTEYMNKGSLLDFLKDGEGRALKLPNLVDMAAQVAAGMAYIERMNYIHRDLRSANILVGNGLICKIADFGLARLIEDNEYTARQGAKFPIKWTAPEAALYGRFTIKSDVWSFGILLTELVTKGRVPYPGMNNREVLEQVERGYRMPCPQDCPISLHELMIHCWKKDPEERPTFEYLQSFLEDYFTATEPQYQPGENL

Sequence | phosphorylation enrichment (AncSZ) | phosphorylation enrichment (c-Abl (mouse)) | phosphorylation enrichment (Hck) | phosphorylation enrichment (FGFR3) | phosphorylation enrichment (Fes) | phosphorylation enrichment (Fyn) | phosphorylation enrichment (FGFR1) | phosphorylation enrichment (EPHB1) | phosphorylation enrichment (Fer (mouse)) | phosphorylation enrichment (c-Src) | phosphorylation enrichment (MERTK) | phosphorylation enrichment (EPHB2) | phosphorylation enrichment (Jak2) | SH2 binding enrichment (SHP2-C SH2) | SH2 binding enrichment (Grb2 SH2) | SH2 binding enrichment (c-Src SH2)
QCTSAYPLQPE [NANS_Y188] | 1.51 | 2.7 | 0.623 | 0.942 | 1.46 | 0.832 | 0.616 | 0.719 | 0.675 | 0.728 | 0.682 | 0.813 | 1.65 | 1.09 | 1.06 | 0.594
QCTSDYPEHVC [SART3_Y541] | 1.36 | 1.23 | 0.831 | 0.969 | 1.44 | 0.605 | 0.929 | 0.929 | 0.668 | 0.583 | 0.565 | 0.523 | 1.64 | 0.833 | 0.939 | 0.866
QDLRLYRPHLA [BTK_Y617_G613D] | 0.578 | 0.571 | 0.548 | 0.488 | 0.931 | 0.505 | 0.358 | 0.517 | 0.5 | 0.474 | 0.363 | 0.467 | 1.17 | 0.555 | 0.728 | 0.581
QEALEYFMKQV [PIK3CA_Y1038_M1043V] | 1.18 | 0.597 | 0.416 | 0.565 | 0.978 | 0.382 | 0.408 | 0.467 | 0.402 | 0.463 | 0.289 | 0.392 | 0.849 | 1.05 | 0.664 | 0.472
QEVLEYFMKQM [PIK3CA_Y1038_A1035V] | 2.18 | 1.31 | 0.95 | 1.68 | 1.94 | 0.999 | 0.954 | 1.15 | 0.719 | 0.963 | 0.68 | 0.993 | 2.27 | 0.584 | 0.663 | 0.479
QGLRLYRSHLA [BTK_Y617_P619S] | 0.935 | 0.801 | 0.38 | 0.5 | 1.04 | 0.571 | 0.552 | 0.718 | 0.527 | 0.51 | 0.417 | 0.408 | 0.75 | 0.888 | 1.21 | 1.03
QGRQTYLLQPA [DDR2_Y813_P815L] | 0.498 | 0.693 | 0.411 | 0.484 | 0.514 | 0.462 | 0.63 | 0.5 | 0.388 | 0.701 | 0.555 | 0.529 | 0.726 | 0.895 | 1.21 | 0.618
QIGRKYKKVRF [F8_Y442_R437Q] | 0.84 | 0.502 | 1.19 | 1.11 | 1.04 | 0.795 | 0.807 | 0.902 | 0.836 | 1.03 | 0.923 | 0.44 | 1.62 | 0.622 | 0.675 | 0.321
QKFMAYLSQGW [HLCS_Y236_G241W] | 1.19 | 0.903 | 0.501 | 1.14 | 1.32 | 0.639 | 0.668 | 0.812 | 0.86 | 0.439 | 0.83 | 1.05 | 1.75 | 1.5 | 0.917 | 0.689
QKLPSYILENN [VPS13B_Y2774] | 1.53 | 1.11 | 0.792 | 0.938 | 1.94 | 0.629 | 0.625 | 0.787 | 0.681 | 0.499 | 0.529 | 0.701 | 1.49 | 0.762 | 0.755 | 0.607
QMVGMYASSYM [AVPR2_Y124] | 1.27 | 0.921 | 1.3 | 0.783 | 1.07 | 1.11 | 0.611 | 1.21 | 1.07 | 1.45 | 2.74 | 1.09 | 0.659 | 0.946 | 0.806 | 1.23
QNTGDDYDLYG [PTPN11_Y62_Y62D] | 2.09 | 0.841 | 1.86 | 1.51 | 1.56 | 1.35 | 0.82 | 0.985 | 0.674 | 1.99 | 0.697 | 1.63 | 1.9 | 0.803 | 0.92 | 0.58
QNTGDYCDLFG [PTPN11_Y62_Y63C_YF] | 3.53 | 1.17 | 0.696 | 3.7 | 1.41 | 0.681 | 5.82 | 9.89 | 0.966 | 0.789 | 0.806 | 8.46 | 1.3 | 0.491 | 0.827 | 0.723
QNTGDYYDLYG [PTPN11_Y62] | 5.36 | 1.1 | 4.7 | 16.1 | 1.29 | 5.48 | 17.1 | 16.7 | 1.31 | 5.07 | 4.37 | 17.8 | 5.11 | 0.725 | 0.911 | 0.849
QPDFLYDHIQP [TRRAP_Y862] | 2.58 | 0.928 | 9.82 | 1.45 | 1.74 | 6.9 | 0.622 | 5.27 | 12 | 5.86 | 7.66 | 3.31 | 1.21 | 0.369 | 0.964 | 0.376
QPGDIYHQTWA [GBA_Y244] | 0.989 | 2.9 | 3.66 | 2.69 | 0.963 | 3.11 | 3.42 | 0.825 | 1.3 | 3.42 | 2.84 | 0.88 | 0.938 | 0.352 | 0.626 | 0.439
QRCYVYYYSYL [PTEN_Y176_R173C] | 1.86 | 1.53 | 1.35 | 2.56 | 2.08 | 1.44 | 2.09 | 1.18 | 1.22 | 3.53 | 2.61 | 1.45 | 4.07 | 0.542 | 0.927 | 0.587

Sequence | phosphorylation enrichment (AncSZ) | phosphorylation enrichment (c-Abl (mouse)) | phosphorylation enrichment (Hck) | phosphorylation enrichment (FGFR3) | phosphorylation enrichment (Fes) | phosphorylation enrichment (Fyn) | phosphorylation enrichment (FGFR1) | phosphorylation enrichment (EPHB1) | phosphorylation enrichment (Fer (mouse)) | phosphorylation enrichment (c-Src) | phosphorylation enrichment (MERTK) | phosphorylation enrichment (EPHB2) | phosphorylation enrichment (Jak2) | SH2 binding enrichment (SHP2-C SH2) | SH2 binding enrichment (Grb2 SH2) | SH2 binding enrichment (c-Src SH2)
QRTMKYTTATG [MCCC1_Y41] | 0.602 | 0.727 | 0.551 | 0.518 | 0.669 | 0.475 | 0.692 | 0.314 | 0.722 | 0.411 | 0.524 | 0.7 | 0.449 | 0.432 | 0.85 | 0.473
QSMEPYTKQQL [STAT3_Y640_V637M] | 0.851 | 0.445 | 0.696 | 0.692 | 1.02 | 0.462 | 0.51 | 0.454 | 0.546 | 0.401 | 0.579 | 0.66 | 0.736 | 0.851 | 0.887 | 0.499
QSSALYEDRYL [ASS1_Y83] | 1.15 | 0.61 | 4.44 | 0.74 | 1.12 | 0.997 | 0.56 | 3.12 | 7.79 | 1.2 | 1.1 | 2.45 | 1.01 | 0.493 | 0.711 | 0.653
QSSEGYGLGDR [KIAA1210_Y564] | 1.03 | 1.27 | 0.989 | 0.677 | 1.06 | 0.842 | 0.538 | 0.731 | 0.871 | 1 | 0.847 | 0.754 | 1.14 | 0.861 | 0.695 | 0.419
QYPDVYAREEV [CRX_Y67] | 3.78 | 3.34 | 2.18 | 1.66 | 4.98 | 1.66 | 0.959 | 1.57 | 1.93 | 3.8 | 1.8 | 1.82 | 5.06 | 0.812 | 1.05 | 0.49
RAADFYSQQMA [GBP6_Y334_YF] | 0.798 | 1.04 | 0.375 | 0.671 | 0.769 | 0.427 | 0.537 | 0.425 | 0.538 | 0.675 | 0.56 | 0.468 | 1.16 | 0.691 | 0.69 | 0.506
RAEAPYLLVSN [LRIG1_Y1054_Q1053P] | 0.655 | 0.556 | 0.564 | 1.18 | 0.775 | 0.654 | 1.72 | 0.4 | 0.699 | 1.79 | 0.456 | 0.36 | 0.748 | 0.645 | 0.847 | 0.695
RAHARYCADAC [ACOT4_Y52_R57C] | 0.601 | 0.889 | 0.45 | 0.395 | 0.677 | 0.344 | 0.436 | 0.402 | 0.518 | 0.41 | 0.437 | 0.499 | 0.61 | 0.898 | 0.915 | 0.872
RAILNYIASKY [GSTA3_Y74] | 1.44 | 0.92 | 0.594 | 0.89 | 1.59 | 0.719 | 0.652 | 0.665 | 0.748 | 0.81 | 0.466 | 0.795 | 0.942 | 0.747 | 1.19 | 1.17
RASDYYSQQMA [GBP6_Y334_A331S] | 0.891 | 0.458 | 0.611 | 1.89 | 0.744 | 0.422 | 2.42 | 0.966 | 0.402 | 0.41 | 0.581 | 0.585 | 0.571 | 0.651 | 0.887 | 0.521
RAVLLYEYVGK [NATD1_Y45] | 3.07 | 1.24 | 10.4 | 3.99 | 4.82 | 6.98 | 3.61 | 28.2 | 19.4 | 5.21 | 11.4 | 35.4 | 0.857 | 1.11 | 1.19 | 1.02
RDMMDYMLQGV [CYP21A2_Y259] | 1.2 | 0.962 | 0.581 | 0.869 | 1.19 | 0.673 | 0.73 | 1.34 | 0.612 | 1.09 | 0.488 | 0.827 | 1.63 | 0.997 | 0.812 | 0.531
REAMEYLESKQ [BTK_Y511_C506R] | 1.62 | 1.15 | 0.505 | 0.794 | 1.15 | 0.703 | 0.754 | 0.657 | 0.704 | 0.701 | 0.501 | 0.573 | 1.09 | 0.678 | 0.706 | 0.491
REGAKYVSHCA [ASS1_Y113_G117C] | 0.776 | 0.825 | 0.489 | 0.445 | 0.86 | 0.822 | 0.643 | 0.618 | 0.633 | 0.516 | 0.504 | 0.506 | 0.652 | 0.723 | 1.04 | 0.676
REGAKYVSHGA [ASS1_Y113] | 0.5 | 0.339 | 0.399 | 0.501 | 0.628 | 0.378 | 0.385 | 0.553 | 0.566 | 0.275 | 0.403 | 0.4 | 0.47 | 0.322 | 0.602 | 0.415
RELGEYGLQAF [ALDH2_Y497_YF] | 1.07 | 0.951 | 0.772 | 0.793 | 1.66 | 0.775 | 0.653 | 0.707 | 0.816 | 0.704 | 1.87 | 1.07 | 0.724 | 1.04 | 1.15 | 0.758
